{
  "source": "patent US20020090682A1",
  "about": "(AMRAD OPERATIONS, published 2002)",
  "binders": {"B1": {"name": "IL-13 (obtained commercially, R & D Systems) (ligand)", "chain": "APGPVPRSVSLPLTLKELIEELSNITQDQTPLCNGSMVWSVDLAAGGFCVALDSLTNISNCNAIYRTQRILHGLCNRKAPTTVSSLPDTKIEVAHFITKLLSYTKQLFRHGPF", "modifications": "Radioiodinated (125I, iodine monochloride method) in the labelled form.", "notes": "the receptor and the cells are murine; also called unlabelled IL-13"}},
  "key": {"[1]": {"biological_target": "T1, murine NR4 (IL-13 receptor α-chain, IL-13Rα) expressed in COS cells (murine, UniProt O09030 27-424)", "T1 construct": "also called IL-13Rα(NR4)", "T1 sequence": "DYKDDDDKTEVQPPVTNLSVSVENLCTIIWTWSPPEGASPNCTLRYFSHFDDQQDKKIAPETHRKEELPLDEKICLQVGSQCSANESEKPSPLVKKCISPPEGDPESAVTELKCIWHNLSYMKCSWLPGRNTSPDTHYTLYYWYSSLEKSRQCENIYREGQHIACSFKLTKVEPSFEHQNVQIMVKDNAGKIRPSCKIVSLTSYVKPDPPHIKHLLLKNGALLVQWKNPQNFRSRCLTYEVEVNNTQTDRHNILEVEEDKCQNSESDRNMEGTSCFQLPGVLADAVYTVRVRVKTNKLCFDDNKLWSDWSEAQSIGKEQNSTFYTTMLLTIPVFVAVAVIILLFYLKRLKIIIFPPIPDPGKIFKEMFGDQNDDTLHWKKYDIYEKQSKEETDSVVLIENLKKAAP", "assay": "Scatchard analysis of 125I-IL-13 binding to COS cells expressing NR4"}, "[2]": {"biological_target": "T2, IL-13Rα(NR4) expressed in CTLL cells (high affinity IL-13 receptor; cells also carry the IL-4 receptor) (murine, UniProt P16382 26-810)", "T2 sequence (P16382 26-810)": "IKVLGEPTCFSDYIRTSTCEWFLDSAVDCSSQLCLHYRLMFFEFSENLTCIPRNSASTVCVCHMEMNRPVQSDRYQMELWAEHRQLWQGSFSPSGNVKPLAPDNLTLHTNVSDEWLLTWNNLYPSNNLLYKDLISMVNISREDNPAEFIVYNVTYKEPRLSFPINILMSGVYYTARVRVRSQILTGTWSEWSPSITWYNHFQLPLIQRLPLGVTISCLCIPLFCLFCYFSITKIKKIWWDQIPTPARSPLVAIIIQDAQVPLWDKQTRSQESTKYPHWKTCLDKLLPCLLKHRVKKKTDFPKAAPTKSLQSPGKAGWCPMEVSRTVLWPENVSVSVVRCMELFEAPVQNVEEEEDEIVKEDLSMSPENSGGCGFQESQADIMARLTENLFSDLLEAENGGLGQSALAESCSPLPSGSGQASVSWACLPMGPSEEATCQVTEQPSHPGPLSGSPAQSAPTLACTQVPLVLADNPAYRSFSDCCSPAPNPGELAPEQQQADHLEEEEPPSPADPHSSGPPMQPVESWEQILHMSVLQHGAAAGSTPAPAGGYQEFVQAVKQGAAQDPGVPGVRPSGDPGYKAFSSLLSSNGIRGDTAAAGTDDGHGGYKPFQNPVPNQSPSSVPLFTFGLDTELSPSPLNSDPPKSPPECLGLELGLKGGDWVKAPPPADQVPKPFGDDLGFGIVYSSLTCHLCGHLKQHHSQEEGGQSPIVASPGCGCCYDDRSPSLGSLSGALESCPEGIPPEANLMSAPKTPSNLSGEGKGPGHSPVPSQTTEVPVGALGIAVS", "assay": "Scatchard analysis of 125I-IL-13 binding to CTLL cells expressing the IL-13Rα(NR4)", "method": "Data have been normalised to 1×10⁴ COS cells and 1×10⁶ CTLL cells and binding was carried out on ice for 2 to 4 hours.\nA likely candidate based on previous studies is the IL-4Rα."}, "[3]": {"biological_target": "T2, IL-13Rα(NR4) expressed in CTLL cells …", "assay": "unlabelled IL-13 competing with 125I-IL-13 for binding to CTLL cells expressing the IL-13Rα(NR4)"}},
  "data": [
    {"binder": "B1", "values": [
      {"measurement": "Kd", "setting": "[1]", "value": "2000 to 10000", "unit": "pM"},
      {"measurement": "Kd", "setting": "[2]", "value": "~75", "unit": "pM"},
      {"measurement": "IC50", "setting": "[3]", "value": "~300", "unit": "pM"}
    ]}
  ]
}
